Source: patent US20240270821A1, “GIP/GLP1/GCG TRI-RECEPTOR AGONISTS AND USES THEREOF” (priority 2023, published 2024)
Substitutions are numbered along the chain they refer to.

T1: human GIP receptor (human) (UniProt P48546)
T1 sequence (looked up): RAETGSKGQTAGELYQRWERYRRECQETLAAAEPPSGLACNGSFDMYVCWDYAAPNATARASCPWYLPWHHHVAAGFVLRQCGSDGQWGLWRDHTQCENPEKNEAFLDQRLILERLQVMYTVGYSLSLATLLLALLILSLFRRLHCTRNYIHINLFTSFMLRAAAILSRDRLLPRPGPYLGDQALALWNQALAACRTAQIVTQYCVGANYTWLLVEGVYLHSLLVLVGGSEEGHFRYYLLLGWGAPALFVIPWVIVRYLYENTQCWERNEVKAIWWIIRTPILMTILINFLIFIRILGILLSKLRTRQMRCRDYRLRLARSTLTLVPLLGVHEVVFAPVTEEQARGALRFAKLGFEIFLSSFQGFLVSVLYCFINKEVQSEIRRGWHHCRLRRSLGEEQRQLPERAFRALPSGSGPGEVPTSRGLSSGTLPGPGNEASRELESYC

B1: Example 932 (peptide)
chain: YXQGTFTSDXSQXLDXKAQXAFIEXLLEGGPSSGAPPPSGS
modifications: non-natural residues; Lys acylated C18 diacid; C-terminal amide; synthetic construct; SITE 2: note = 2-Aminoisobutyric Acid; SITE 10: note = 3-(4-Pyridyl)-L-alanine; SITE 13: note = alpha-methyl-leucine; SITE 16: note = L-ornithine; SITE 17: note = Lysine is chemically modified through conjugation of the epsilon-amino group of the Lysine side chain with (2-[2-(2-
B2: Example 934 (peptide)
chain: B1 chain with X16K, A21Q, L27I
modifications: non-natural residues, acylated Lys ((γGlu)2-C18 diacid), C-terminal amide; synthetic construct; SITE 2: note = 2-Aminoisobutyric Acid; SITE 10: note = 3-(4-Pyridyl)-L-alanine; SITE 13: note = alpha-methyl-leucine; SITE 17: note = Lysine is chemically modified through conjugation of the epsilon-amino group of the Lysine side chain with (gamma-Glu)2-CO-(CH2)16-CO2H; SITE 20:
B3: Example 918 (peptide)
chain: YXQGTFTSDXSQXLDKKAQXAFIEYLIEXGPSSGAPPPSEG
modifications: non-natural residues; lipidated Lys AEEA-γGlu-C18 diacid; synthetic construct; SITE 2: note = 2-Aminoisobutyric Acid; SITE 10: note = 3-(4-Pyridyl)-L-alanine; SITE 13: note = alpha-methyl-leucine; SITE 17: note = Lysine is chemically modified through conjugation of the epsilon-amino group of the Lysine side chain with (2-[2-(2-Amino-ethoxy)-ethoxy]-acetyl)
B4: Example 949 (peptide)
chain: B1 chain with Q12X, X16K, L27I
modifications: Aib, 4Pal, Orn, Me4Pal; acylated lysine; amide; synthetic construct; SITE 2: note = 2-Aminoisobutyric Acid; SITE 10: note = 3-(4-Pyridyl)-L-alanine; SITE 12: note = L-ornithine; SITE 13: note = alpha-methyl-leucine; SITE 17: note = Lysine is chemically modified through conjugation of the epsilon-amino group of the Lysine side chain with (2-[2-(2-
B5: Example 922 (peptide)
chain: B3 chain with E40G, G41S
modifications: Lys acylated γGlu-C18 diacid; non-natural residues; C-amide; synthetic construct; SITE 2: note = 2-Aminoisobutyric Acid; SITE 10: note = 3-(4-Pyridyl)-L-alanine; SITE 13: note = alpha-methyl-leucine; SITE 17: note = Lysine is chemically modified through conjugation of the epsilon-amino group of the Lysine side chain with (gamma-Glu)-(D-Glutamic acid)2-CO-(CH2)
B6: Example 919 (peptide)
chain: B3 chain with G41E
modifications: non-natural residues; lipidated Lys; D-Glu; synthetic construct; SITE 2: note = 2-Aminoisobutyric Acid; SITE 10: note = 3-(4-Pyridyl)-L-alanine; SITE 13: note = alpha-methyl-leucine; SITE 17: note = Lysine is chemically modified through conjugation of the epsilon-amino group of the Lysine side chain with (2-[2-(2-Amino-ethoxy)-ethoxy]-acetyl)
B7: Example 909 (peptide)
chain: B1 chain with Q12R, X16K
modifications: synthetic construct; SITE 2: note = 2-Aminoisobutyric Acid; SITE 10: note = 3-(4-Pyridyl)-L-alanine; SITE 13: note = alpha-methyl-leucine; SITE 17: note = Lysine is chemically modified through conjugation of the epsilon-amino group of the Lysine side chain with (2-[2-(2-Amino-ethoxy)-ethoxy]-acetyl)
B8: Example 916 (peptide)
chain: B3 chain with Q12K, Y25X, E40G, G41S
modifications: Aib, 4Pal, αMeL, Me4Pal; lysine acylated C18 diacid; amide; synthetic construct; SITE 2: note = 2-Aminoisobutyric Acid; SITE 10: note = 3-(4-Pyridyl)-L-alanine; SITE 13: note = alpha-methyl-leucine; SITE 17: note = Lysine is chemically modified through conjugation of the epsilon-amino group of the Lysine side chain with (2-[2-(2-Amino-ethoxy)-ethoxy]-acetyl)
B9: Example 920 (peptide)
chain: B3 chain with E40G, G41S
modifications: non-natural residues; C18 diacid-γGlu-e on Lys; C-terminal amide; synthetic construct; SITE 2: note = 2-Aminoisobutyric Acid; SITE 10: note = 3-(4-Pyridyl)-L-alanine; SITE 13: note = alpha-methyl-leucine; SITE 17: note = Lysine is chemically modified through conjugation of the epsilon-amino group of the Lysine side chain with D-Glutamic acid-(gamma-Glu)-CO-(CH2)16
B10: Example 914 (peptide)
chain: B3 chain with Q12K, Y25X, E40G, G41S
modifications: Aib, 4Pal, αMeL, Me4Pal; acylated Lys; C-terminal amide; synthetic construct; SITE 2: note = 2-Aminoisobutyric Acid; SITE 10: note = 3-(4-Pyridyl)-L-alanine; SITE 13: note = alpha-methyl-leucine; SITE 17: note = Lysine is chemically modified through conjugation of the epsilon-amino group of the Lysine side chain with (2-[2-(2-Amino-ethoxy)-ethoxy]-acetyl)
B11: Example 921 (peptide)
chain: B3 chain with E40G, G41S
modifications: Aib, 4Pal, αMeL, Me4Pal; acylated Lys; C-terminal amide; synthetic construct; SITE 2: note = 2-Aminoisobutyric Acid; SITE 10: note = 3-(4-Pyridyl)-L-alanine; SITE 13: note = alpha-methyl-leucine; SITE 17: note = Lysine is chemically modified through conjugation of the epsilon-amino group of the Lysine side chain with (D-Glutamic acid)2-(gamma-Glu)-CO-(CH2)
B12: Example 912 (peptide)
chain: B3 chain with X10F, Q12K, Y25X, E40G, G41S
modifications: non-natural residues, AEEA-γGlu-C18 diacid lysine acylation, C-terminal amide; synthetic construct; SITE 2: note = 2-Aminoisobutyric Acid; SITE 13: note = alpha-methyl-leucine; SITE 17: note = Lysine is chemically modified through conjugation of the epsilon-amino group of the Lysine side chain with (2-[2-(2-Amino-ethoxy)-ethoxy]-acetyl)-(gamma-Glu)-CO-(CH2) 16-CO2H; SITE 20: n
B13: Example 901 (peptide)
chain: YXQGTFTSDXSKXLDKKAQXAFIEYLIEXGPSSGAPPPSGSE
modifications: synthetic construct; SITE 2: note = 2-Aminoisobutyric Acid; SITE 10: note = 3-(4-Pyridyl)-L-alanine; SITE 13: note = alpha-methyl-leucine; SITE 17: note = Lysine is chemically modified through conjugation of the epsilon-amino group of the Lysine side chain with (2-[2-(2-Amino-ethoxy)-ethoxy]-acetyl)
B14: Example 926 (peptide)
chain: B13 chain with K12Q
modifications: γGlu-C18 diacid on Lys; non-natural residues; amide; synthetic construct; SITE 2: note = 2-Aminoisobutyric Acid; SITE 10: note = 3-(4-Pyridyl)-L-alanine; SITE 13: note = alpha-methyl-leucine; SITE 17: note = Lysine is chemically modified through conjugation of the epsilon-amino group of the Lysine side chain with (gamma-Glu)-(D-Glutamic acid)2-CO-(CH2)
B15: Example 904 (peptide)
chain: B13 chain
modifications: synthetic construct; SITE 2: note = 2-Aminoisobutyric Acid; SITE 10: note = 3-(4-Pyridyl)-L-alanine; SITE 13: note = alpha-methyl-leucine; SITE 17: note = Lysine is chemically modified through conjugation of the epsilon-amino group of the Lysine side chain with (gamma-Glu)2-CO-(CH2)16-CO2H; SITE 20:
B16: Example 927 (peptide)
chain: B13 chain with K12Q
modifications: Aib, 4Pal, Me4Pal, alpha-methyl-Leu, lipidated Lys, amide; synthetic construct; SITE 2: note = 2-Aminoisobutyric Acid; SITE 10: note = 3-(4-Pyridyl)-L-alanine; SITE 13: note = alpha-methyl-leucine; SITE 17: note = Lysine is chemically modified through conjugation of the epsilon-amino group of the Lysine side chain with D-Glutamic acid-(gamma-Glu)-D-Glutamic
B17: Example 925 (peptide)
chain: B13 chain with K12Q
modifications: acylated lysine γGlu-C18 diacid; non-natural residues; C-terminal amide; synthetic construct; SITE 2: note = 2-Aminoisobutyric Acid; SITE 10: note = 3-(4-Pyridyl)-L-alanine; SITE 13: note = alpha-methyl-leucine; SITE 17: note = Lysine is chemically modified through conjugation of the epsilon-amino group of the Lysine side chain with (D-Glutamic acid)2-(gamma-Glu)-CO-(CH2)
B18: Example 924 (peptide)
chain: B13 chain with K12Q
modifications: C-terminal amide; lysine acylated with γ-Glu-C18 diacid; synthetic construct; SITE 2: note = 2-Aminoisobutyric Acid; SITE 10: note = 3-(4-Pyridyl)-L-alanine; SITE 13: note = alpha-methyl-leucine; SITE 17: note = Lysine is chemically modified through conjugation of the epsilon-amino group of the Lysine side chain with D-Glutamic acid-(gamma-Glu)-CO-(CH2)16

Target: T1, human GIP receptor (human)
Test: cell-based or functional assay

| Binder | cAMP Rel EC50 (1% HSA) [nM] | cAMP Rel EC50, nM (1% HSA) [nM] | Relative cAMP EC50 [nM] |
| --- | --- | --- | --- |
| B1 | 25 | – | – |
| B2 | 28.1 | – | – |
| B3 | 18 | – | – |
| B4 | – | 26 | – |
| B5 | 6.39 | – | – |
| B6 | 25.8 | – | – |
| B7 | 20.2 | – | 0.121 |
| B8 | 4.78 | – | – |
| B9 | 9.05 | – | – |
| B10 | 5.94 | – | – |
| B11 | 12.4 | – | – |
| B12 | 6.15 | – | – |
| B13 | 34 | – | 0.17 |
| B14 | 13.5 | – | – |
| B15 | 15 | – | 0.194 |
| B16 | 22.2 | – | – |
| B17 | 23 | – | – |
| B18 | 15.7 | – | – |

Target: hGLP-1R (Homo sapiens, UniProt P43220)
Test: cell-based or functional assay

hGLP-1R, sequence (P43220 24-463): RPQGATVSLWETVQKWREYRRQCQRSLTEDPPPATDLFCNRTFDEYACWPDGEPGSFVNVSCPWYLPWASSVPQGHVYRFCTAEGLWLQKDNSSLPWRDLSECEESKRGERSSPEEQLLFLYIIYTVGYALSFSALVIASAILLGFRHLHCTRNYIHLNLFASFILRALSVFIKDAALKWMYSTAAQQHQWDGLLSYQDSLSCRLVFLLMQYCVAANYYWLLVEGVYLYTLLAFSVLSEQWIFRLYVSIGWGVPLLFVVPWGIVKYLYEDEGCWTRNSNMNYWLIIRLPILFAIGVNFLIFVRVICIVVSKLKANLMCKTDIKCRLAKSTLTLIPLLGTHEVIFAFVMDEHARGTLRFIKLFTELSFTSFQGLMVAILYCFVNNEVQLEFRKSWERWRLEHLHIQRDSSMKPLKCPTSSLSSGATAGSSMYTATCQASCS

| Binder | cAMP Rel EC50 (1% HSA) [nM] | cAMP Rel EC50, nM (1% HSA) [nM] | Relative cAMP EC50 [nM] |
| --- | --- | --- | --- |
| B1 | 249 | – | – |
| B2 | 175 | – | – |
| B3 | 484 | – | – |
| B4 | – | 721 | – |
| B5 | 357 | – | – |
| B6 | 454 | – | – |
| B7 | 243 | – | 1.72 |
| B8 | 166 | – | – |
| B9 | 322 | – | – |
| B10 | 91.7 | – | – |
| B11 | 261 | – | – |
| B12 | 59.6 | – | – |
| B13 | 193 | – | 1.26 |
| B14 | 600 | – | – |
| B15 | 198 | – | 1.94 |
| B16 | 584 | – | – |
| B17 | 708 | – | – |
| B18 | 402 | – | – |

Target: human glucagon receptor (human) (UniProt P47871)
Test: cell-based or functional assay

human glucagon receptor (human), sequence (P47871 26-477): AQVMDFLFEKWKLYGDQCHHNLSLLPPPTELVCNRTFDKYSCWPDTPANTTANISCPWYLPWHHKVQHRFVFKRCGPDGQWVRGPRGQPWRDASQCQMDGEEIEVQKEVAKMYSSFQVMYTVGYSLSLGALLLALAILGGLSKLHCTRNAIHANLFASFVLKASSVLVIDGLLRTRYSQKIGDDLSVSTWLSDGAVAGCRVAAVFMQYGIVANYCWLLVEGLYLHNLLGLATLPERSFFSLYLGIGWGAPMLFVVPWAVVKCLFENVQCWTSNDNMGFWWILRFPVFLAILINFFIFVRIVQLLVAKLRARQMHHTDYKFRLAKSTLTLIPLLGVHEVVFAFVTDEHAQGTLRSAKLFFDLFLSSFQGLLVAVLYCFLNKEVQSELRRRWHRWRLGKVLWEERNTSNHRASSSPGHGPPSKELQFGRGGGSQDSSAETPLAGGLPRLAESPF

| Binder | cAMP Rel EC50 (1% HSA) [nM] | cAMP Rel EC50, nM (1% HSA) [nM] | Relative cAMP EC50 [nM] |
| --- | --- | --- | --- |
| B1 | 513 | – | – |
| B2 | 1380 | – | – |
| B3 | 590 | – | – |
| B4 | – | 317 | – |
| B5 | 1170 | – | – |
| B6 | 467 | – | – |
| B7 | 1740 | – | 6.82 |
| B8 | 158 | – | – |
| B9 | 1090 | – | – |
| B10 | 983 | – | – |
| B11 | 2130 | – | – |
| B12 | 955 | – | – |
| B13 | 1150 | – | 9.09 |
| B14 | 1380 | – | – |
| B15 | 1330 | – | 9.88 |
| B16 | 1210 | – | – |
| B17 | 2500 | – | – |
| B18 | 910 | – | – |
